Measured values published in the supplement of paper PMC7877785.
± gives the uncertainty stated by the source.

Experiment: self-splicing fitness, log relative to wild type (ln ratio); higher = more splicing; Tetrahymena group I intron in knt gene, E. coli kanamycin selection, DiMSum; sequences stand for … in CUCUCU…GGAGGGAAAAGUUAUCAGGCAUGCACCUGGUAGCUAGUCUUUAAACCAAUAGAUUGCAUCGGUUUAAAAGGCAAGACCGUCAAAUUGCGGGAAAGGGGUCAACAGCCGUUCAGUACCAAGUCUCAGGGGAAACUUUGAGAUGGCCUUGCAAAGGGUAUGGUAAUAAGCUGACGGACAUGGUCCUAACCACGCAGCCAAGUCCUAAGUCAACAGAUCUUCUGUUGAUAUGGAUGCAGUUCACAGACUAAAUGUCGGUCGGGGAAGAUGUAUUCUUCUCAUAAGAUAUAGUCGGACCUCUCCUUAAUGGGAGCUAGCGGAUGAAGUGAUGCAACACUGGAGCCGCUGGGAACUAAUUUGUAUGCGAAAGUAUAUUGAUUAGUUUUGGAGUACUCGUGGUCG
Procedure, shortened: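 Colonies from six replicate transformations of E. coli BL21(DE3) were pooled and amplicon-sequenced on an Illumina HiSeq 2500. The library placed an intron with all eight P1ex-region nucleotides randomised inside the knt kanamycin-resistance gene on pET-22b(+), and cells grew overnight at 37°C or 30°C on LB agar with or without 25 μg/mL kanamycin (plus 100 μg/mL carbenicillin, 50 μM IPTG, 0.2% rhamnose). Fitness is the DiMSum error-weighted combination of wild-type-normalised replicate fold changes, kanamycin versus none.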

Row | Sequence | self-splicing fitness (ln) (30 °C) | self-splicing fitness (ln) (37 °C)
1 | CCCGAGCAAUAUUACGUCGA | -4.11 ± 0.39 | -3.16 ± 0.25
2 | CCCGAGCAAUAUUACGUCUA | -3.33 ± 0.2 | -2.42 ± 0.22
3 | CCCGAGCAAUAUUACGUUAU | -3.87 ± 0.21 | -2.62 ± 0.19
4 | CCCUAGCAAUAUUACGAACG | -3 ± 0.21 | -2.59 ± 0.29
5 | CCCUAGCAAUAUUACGAAUG | -4.25 ± 0.46 | 
6 | CCCUAGCAAUAUUACGAGAG | -3.79 ± 0.3 | -2.5 ± 0.23
7 | CCCUAGCAAUAUUACGAGCU | -4.02 ± 0.24 | -1.87 ± 0.2
8 | CCCUAGCAAUAUUACGAGGG | -4.35 ± 0.46 | -2.09 ± 0.23
9 | CCCUAGCAAUAUUACGAGUC | -3.63 ± 0.21 | -2.28 ± 0.27
10 | CCCUAGCAAUAUUACGAUAA | -4.04 ± 0.22 | -2.48 ± 0.22
11 | CCCUAGCAAUAUUACGCGAG | -3.61 ± 0.19 | -3.25 ± 0.21
12 | CCCUAGCAAUAUUACGCGCG | -3.46 ± 0.16 | -3.35 ± 0.27
13 | CCCUAGCAAUAUUACGCUAA | -4.17 ± 0.3 | -2.55 ± 0.22
14 | CCCUAGCAAUAUUACGGCAA | -3.66 ± 0.22 | -3.15 ± 0.18
15 | CCCUAGCAAUAUUACGGCAG | -3.47 ± 0.22 | -2.75 ± 0.22
16 | CCCUAGCAAUAUUACGGCGA | -2.43 ± 0.13 | -2.19 ± 0.17
17 | CCCUAGCAAUAUUACGGCGC | -3.55 ± 0.21 | -3.28 ± 0.24
18 | CCCUAGCAAUAUUACGGGAU | -3.82 ± 0.21 | -3.12 ± 0.26
19 | CCCUAGCAAUAUUACGGUAA | -2.69 ± 0.21 | -3.02 ± 0.32
20 | CCCUAGCAAUAUUACGGUCU | -3.61 ± 0.21 | -1.72 ± 0.17
21 | CCCUAGCAAUAUUACGUACA | -2.75 ± 0.19 | -2.87 ± 0.22

Row | Sequence | self-splicing fitness (ln) (30 °C) | self-splicing fitness (ln) (37 °C)
22 | CCCUAGCAAUAUUACGUGUC | -3.29 ± 0.13 | -2.97 ± 0.19
23 | CCCUAGCAAUAUUACGUUGU | -3.84 ± 0.16 | -3.27 ± 0.16
24 | CCGAAGCAAUAUUACGAACA |  | -2.58 ± 0.41
25 | CCGAAGCAAUAUUACGAACG | -0.139 ± 0.077 | 0.554 ± 0.1
26 | CCGAAGCAAUAUUACGAAUC | -4.12 ± 0.32 | -3.04 ± 0.48
27 | CCGAAGCAAUAUUACGAGAU | -3.31 ± 0.17 | -2.43 ± 0.21
28 | CCGAAGCAAUAUUACGCCUG | -1.04 ± 0.094 | -1.17 ± 0.11
29 | CCGAAGCAAUAUUACGCGAA |  | -2.24 ± 0.2
30 | CCGAAGCAAUAUUACGCUCG | -1.57 ± 0.18 | -1.53 ± 0.21
31 | CCGAAGCAAUAUUACGGCCC | -3.55 ± 0.3 | -1.71 ± 0.38
32 | CCGAAGCAAUAUUACGGCGC | -4.16 ± 0.36 | -2.63 ± 0.49
33 | CCGAAGCAAUAUUACGGCUU | -3.9 ± 0.29 | -3.29 ± 0.32
34 | CCGAAGCAAUAUUACGGGAC | -4.02 ± 0.26 | -3.3 ± 0.26
35 | CCGAAGCAAUAUUACGGGGA | -3.16 ± 0.19 | -2.96 ± 0.19
36 | CCGAAGCAAUAUUACGGGGU | -4.25 ± 0.22 | -2.6 ± 0.21
37 | CCGAAGCAAUAUUACGGGUA | -4.26 ± 0.3 | -2.35 ± 0.22
38 | CCGAAGCAAUAUUACGGUAC |  | -1.85 ± 0.25
39 | CCGAAGCAAUAUUACGGUCG | -0.661 ± 0.11 | -0.369 ± 0.14
40 | CCGAAGCAAUAUUACGUAAG | -0.257 ± 0.055 | 0.2 ± 0.073
41 | CCGAAGCAAUAUUACGUCGA | -2.38 ± 0.17 | -1.74 ± 0.12
42 | CCGAAGCAAUAUUACGUUGA | -3.76 ± 0.15 | -3.45 ± 0.17

Row | Sequence | self-splicing fitness (ln) (30 °C) | self-splicing fitness (ln) (37 °C)
43 | CCGCAGCAAUAUUACGAAGA | -2.83 ± 0.26 | -2.57 ± 0.24
44 | CCGCAGCAAUAUUACGACGG | -2.83 ± 0.11 | -2.64 ± 0.19
45 | CCGCAGCAAUAUUACGACUA | -3.8 ± 0.34 | -3.46 ± 0.29
46 | CCGCAGCAAUAUUACGACUC | -3.06 ± 0.23 | -2.02 ± 0.26
47 | CCGCAGCAAUAUUACGAUCA | -2.72 ± 0.22 | -1.85 ± 0.27
48 | CCGCAGCAAUAUUACGAUUC | -3.56 ± 0.19 | -3.03 ± 0.21
49 | CCGCAGCAAUAUUACGCACC | -3.46 ± 0.23 | -2.05 ± 0.24
50 | CCGCAGCAAUAUUACGCCGG | -3.15 ± 0.38 | -3 ± 0.43
51 | CCGCAGCAAUAUUACGCGGU | -3.18 ± 0.16 | -2.5 ± 0.22
52 | CCGCAGCAAUAUUACGCUAA | -3.22 ± 0.22 | -2.55 ± 0.23
53 | CCGCAGCAAUAUUACGGACG | -2.13 ± 0.1 | -0.204 ± 0.11
54 | CCGCAGCAAUAUUACGGAUU | -3.8 ± 0.14 | -2.75 ± 0.16
55 | CCGCAGCAAUAUUACGGCCC | -3.3 ± 0.48 | 
56 | CCGCAGCAAUAUUACGGCCU | -3.67 ± 0.42 | -2.88 ± 0.24
57 | CCGCAGCAAUAUUACGGCUC | -4.29 ± 0.21 | -1.34 ± 0.12
58 | CCGCAGCAAUAUUACGGUGG | -3.11 ± 0.12 | -3.48 ± 0.2
59 | CCGCAGCAAUAUUACGUAAA | -4.2 ± 0.25 | -2.62 ± 0.2
60 | CCGCAGCAAUAUUACGUAAG | 0.385 ± 0.056 | -0.112 ± 0.062
61 | CCGCAGCAAUAUUACGUCUA | -1.79 ± 0.32 | -3 ± 0.3
